In patent publication US20180092964A1:

Target: VLDL receptor (VLDLR) on U937 clone 10 cells (UniProt P98155)
Experiment: cell-based or functional assay

low endotoxin recombinant RAP (LDL Receptor-Associated Protein) (from UniProt P30533 35-357)
HIV-1 infectivity of U937 clone 10 cells preconditioned with RAP for 15 min, then with α1PI, and cultured for 8 days: 93%
